Experimental data as given in patent US20240109974A1 (SHANDONG SIMCERE BIOPHARMACEUTICAL, published 2024).
One block for each binder: values may come before it.

Assays:
[1] = target: T1, human TNFR2 (Novoprotein, Cat #C830) (human, UniProt P20333 23-257, limits assumed); assay: competition ELISA: antibody titrated against human TNFα-Biotin on coated human TNFR2 (Novoprotein), detection with Streptavidin-HRP [panel B]
T1 construct: construct not described; also called human TNFR2 protein
T1 sequence (looked up): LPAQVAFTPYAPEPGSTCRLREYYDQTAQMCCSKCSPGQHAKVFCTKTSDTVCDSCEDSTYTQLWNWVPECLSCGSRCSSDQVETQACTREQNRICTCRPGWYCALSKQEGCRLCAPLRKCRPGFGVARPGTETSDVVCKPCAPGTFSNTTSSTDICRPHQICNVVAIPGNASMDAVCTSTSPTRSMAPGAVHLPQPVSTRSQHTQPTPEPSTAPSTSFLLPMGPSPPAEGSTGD
Experimental: 1 μg/ml human TNFR2 (Novoprotein, Cat #C830) was pre-coated with 100 μl/well […] in an ELISA plate. All the test TNFR2 antibodies were subjected to 2.5-fold gradient dilution from the highest concentration of 30 μg/ml; the diluted antibodies were mixed with 15 ng/ml human TNFα-Biotin (Acro Biosystem, Cat #TNA-H82E3) in equal volume, respectively; the resulting mixture was added to the ELISA plate at 100 μl/well, and incubated with shaking at room temperature for 2.0 hours. The plate was washed, and then a Streptavidin-HRP working solution (diluted at 1:10000) was added at 100 μl/well, and the mixture was incubated with shaking at room temperature for 40 minutes. The plate was washed again, and then the substrate TMB of HRP was added to develop colour. A stop solution was added to stop the reaction, and then a microplate reader (MD 13) was used to read the absorbance value. The inhibitory curve of an antibody was drawn with antibody concentration as the abscissa and corresponding OD value as the ordinate, and fitted with four parameters (GraphPad Prism9) to calculate the IC50 value. The smaller the IC50 value, the stronger the ability of an antibody to inhibit the binding of human TNFα to human TNFR2. The blocking effect of a humanized antibody was normalized to its corresponding human-murine chimeric antibody WT. […]

[2] = target: T2, human TNFR2 on the surface of CHO-TNFR2 cells (human, UniProt P20333 23-461); assay: flow cytometry competition: antibody titrated on CHO-TNFR2 cells, then human TNFα-biotin, detection with PE-streptavidin [panel C]
T2 construct: whole, on cells
T2 sequence (looked up): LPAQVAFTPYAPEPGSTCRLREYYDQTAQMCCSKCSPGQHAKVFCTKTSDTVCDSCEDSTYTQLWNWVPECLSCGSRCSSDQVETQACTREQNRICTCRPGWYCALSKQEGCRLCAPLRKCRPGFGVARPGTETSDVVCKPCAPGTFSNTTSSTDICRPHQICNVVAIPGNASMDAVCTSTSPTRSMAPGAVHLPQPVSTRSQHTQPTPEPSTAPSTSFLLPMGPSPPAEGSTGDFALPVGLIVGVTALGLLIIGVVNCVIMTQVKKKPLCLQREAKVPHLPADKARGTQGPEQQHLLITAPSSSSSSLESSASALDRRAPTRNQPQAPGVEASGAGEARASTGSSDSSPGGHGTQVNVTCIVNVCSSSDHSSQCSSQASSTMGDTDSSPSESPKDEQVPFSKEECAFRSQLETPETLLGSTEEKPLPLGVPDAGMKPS
Experimental: CHO stable cells highly expressing human TNFR2 were used for the experiment (the same as CHO-TNFR2 in Example 4). The CHO-TNFR2 cells were digested, washed twice with DPBS, then stained with Live/Dead (L/D) (20 minutes at room temperature), and plated at a density of 1×10⁵ cells/50 μl/well. A test anti-TNFR2 antibody was diluted to 6 μg/ml with a staining buffer as the starting concentration: the antibody was subjected to 3.33-fold gradient dilution, with a total of 7 concentration points. The diluted antibody was added to the plated cells at 50 μl/well, and the mixture was mixed well by gentle pipetting, and incubated at 4° C. for 30 minutes. Then the diluted 100 ng/ml of human TNFα-biotin was added at 100 μl/well, and the mixture was mixed well by gentle pipetting, and then incubated at 4° C. for 30 minutes. The mixture was washed twice with a staining buffer, and then 0.12 μg/ml PE-streptavidin (BioLegend, Cat #405204) was added at 100 μl/well; the resulting mixture was incubated at 4° C. for 30 minutes. The mixture was washed twice with a staining buffer, and then 150 μl of staining buffer was added to resuspend the cells; signals were detected by a flow cytometer (Thermo Attune NxT). […]

[3] = target: T3, Human TNFR2-His (Sino 10417-H08H) (human, UniProt P20333 23-257); assay: ELISA, plate coated with Human TNFR2-His, detection with anti-human IgG Fc-HRP [panel C]
T3 construct: Bought protein; also called recombinant human TNFR2 protein; not shown: His tag
T3 sequence (looked up): T1 sequence (looked up)
Experimental: The test humanized antibody against TNFR2 (as described in Example 1, the antibody was comprised of variable regions linked to IgG-Fc; the WT chimeric antibody also adopted the IgG-Fc structure) was subjected to 3.33-fold gradient dilution, loaded with 100 μl/well, and incubated with shaking at room temperature for 1.5 hours. The plate was washed, and then a working solution of murine anti-human IgG Fc-HRP (diluted at 1:10000) was added, loaded with 100 μl/well, and incubated with shaking at room temperature for 1.0 hour. The plate was washed again, and then the substrate TMB of HRP was added to develop colour. A stop solution was added to stop the reaction, and then a microplate reader (MD 13) was used to read the absorbance value. The binding curve of an antibody was drawn with antibody concentration as the abscissa and corresponding OD value as the ordinate, and fitted with four parameters (GraphPad Prism9) to calculate the EC50 value. The smaller the EC50 value, the stronger the binding ability of an antibody to human/cynomolgus monkey TNFR2. The binding effect of a humanized antibody was normalized to its corresponding human-murine chimeric antibody WT (see SEQ ID NOs: 38-43 for the sequence). The higher the percentage value, the better the binding effect of the humanized antibody. […]

IC50 (read off the curve) [1]: ~0.6 µg/mL
B1: 219-WT (antibody, V domains shown)
VH: EVQLQESGAELVRPGASVKLSCKASGYSFTNYWMNWVKQRPGQGLEWIGMIHPSDTETRLNQNFKDKATLTVDKSSSTSYMQLSSPTSEDSAVYYCARGEGLGAARSVSMDYWGQGTTVTVSS
VL: DILMTQSPSSLSASLGDRVTISCRASQDISNYLNWYQQKPDGTVKVLIYYTAILHSGVPSRFSGSGSGTDYSLTISNLEQEDIATYFCQQGNTLPWTFGGGTKLEIK
notes: Human-murine chimeric wild-type molecule

IC50 (read off the curve) [2]: ~0.05 µg/mL
EC50 (read off the curve) [3]: ~0.01 µg/mL
B2: 224-WT (antibody, V domains shown)
VH: EVQLQESGPEIVKPGASVKLSCTASGFNNKDIYMHWVKQRPEQGLEWIGRIDPATGNTKHDPKFQDKATLSSDTSSNTAYLQFSSLTSEDTAVYYCAHSPYGDFGAMDYWGQGTTVTVSS
VL: DIQMTQSPAIMSASLGERVTMTCTASSSVSSNYLHWYQQKPGSSPKLWIYSTSNLPSGVPARFSGSGSGTSYSLTISSMEAEDAATYYCHQYHRSPWTFGGGTKLEIK
notes: Human-murine chimeric wild-type molecule; also called human-murine chimeric antibody WT of #224
